Test results published in patent publication US20130224191A1, “NOTUM PROTEIN MODULATORS AND METHODS OF USE” (priority 2010, published 2013).
Entries after “also recorded” stand apart in the source; their conditions may differ.

Columns and labels:
[1] = biological target: T1, chimeric human/mouse Notum (Homo sapiens, UniProt Q6P988, A205S/A256S/E196D/E289D/E487K/H276R/H373G/H396Y/K251E/L360Q/L418F/L429M/L483M/M474V/N299S/P379Q/P480Q/Q248L/Q311K/R218K/R307Q/R361W/S193P/T277S/T284N/V280I/V301M/V434F/V452I/Y171H); test: Neutralization of chimeric Notum in 293.TCF assay; format: cell-based
T1 construct: human mature Notum protein (residues 19-144) fused to the mouse Notum (mouse residues 150-484); His tag; made in house
T1 sequence (Q6P988 with tags, fused parts or gaps Y171H/S193P/E196D/A205S/R218K/Q248L/K251E/A256S/H276R/T277S/V280I/T284N/E289D/N299S/V301M/R307Q/Q311K/L360Q/R361W/H373G/P379Q/H396Y/L418F/L429M/V434F/V452I/M474V/P480Q/L483M/E487K): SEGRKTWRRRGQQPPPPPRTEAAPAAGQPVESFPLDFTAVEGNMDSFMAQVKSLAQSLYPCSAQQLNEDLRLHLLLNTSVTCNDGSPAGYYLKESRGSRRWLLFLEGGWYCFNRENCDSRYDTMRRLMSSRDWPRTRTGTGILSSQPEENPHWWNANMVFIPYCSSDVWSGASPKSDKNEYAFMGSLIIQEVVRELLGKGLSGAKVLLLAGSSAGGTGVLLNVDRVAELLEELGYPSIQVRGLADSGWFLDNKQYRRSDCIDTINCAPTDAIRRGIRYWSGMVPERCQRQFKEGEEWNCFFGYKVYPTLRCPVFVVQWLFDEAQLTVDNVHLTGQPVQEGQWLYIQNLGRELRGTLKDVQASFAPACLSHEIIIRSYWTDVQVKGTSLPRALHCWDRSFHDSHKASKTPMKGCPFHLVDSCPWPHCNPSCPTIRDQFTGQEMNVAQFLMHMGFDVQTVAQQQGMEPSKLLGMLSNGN
From the text: To better understand the structural basis for the interaction of SC2.D2.2 with human Notum, a chimeric Notum protein was fabricated. This approach takes advantage of the fact that the orthologs are structurally related. To that end a chimeric Notum molecule composed of the N terminal of the human mature Notum protein (residues 19-144) fused to the mouse Notum (mouse residues 150-484) (genes both consistent with Example 7) was generated and expressed in a similar manner to that set forth in previous Examples. The BamHI restriction cleavage site in human Notum gene was used for construction of in-frame fusion Notum chimeric protein. An expression vector was then constructed containing the His tagged chimeric Notum sequence.
The chimeric human/mouse Notum protein described in Example 17 was placed into the 293.TCF assay. […] (Note that FIG. 1C would annotate the residue as D129, based upon numbering from the start of the mature Notum protein, whereas the D141 annotation is based upon the consideration of the wild-type human protein precursor).

macaque Notum-Fc = test: Neutralization of macaque Notum in 293.TCF assay; format: cell-based
Method: Using the 293.TCF cells, purified SC2.D2.2 and SC2.A106 antibodies were tested for their ability to neutralize murine Notum-His or macaque Notum-Fc activity as follows. 2.5×10^4 293.TCF cells were plated per well of a 96-well tissue culture plate in 50 μL of serum-free medium. After 23 hours of serum starvation, 10 μL of DMEM+0.2% FBS containing the Notum proteins at various concentrations were mixed with 15 μL of purified antibody at various concentrations, and allowed to incubate for 5 minutes at room temperature. The 25 μL antibody/Notum mixture was then added to the 293.TCF cells. After 1 hour, 25 μL of Wnt3A or control L-cell CM were added to each well. Eighteen hours after addition of CM, 100 μL of One-Glo solution (ProMega Corp.) was added to each well. The contents of each well were mixed thoroughly to lyse the cells, 100 μL of lysate transferred to black 96-well plates, and the luminescence read after 5 minutes.

HCT-116 cells = test: Cell survival/proliferation, CellTiterGlo, HCT-116; format: cell-based, human
Method: To determine whether Notum protein impacts cell proliferation and/or apoptosis of human colorectal cancer cells, HCT-116 cells or mouse lineage-depleted NTX tumor cells (i.e. human tumor cells) were plated as described below and exposed to recombinant hNotum (e.g. hNotum-His or hNotum-hFc) and anti-Notum antibodies. Cell numbers were then assessed 12-14 days later.
Cells were then incubated for 14 days at 37° C., 5% CO2 and 5% O2 and the number of viable cells was assessed using Promega's CellTiterGlo assay kit per the manufacturer's instructions. For the HCT-116 cell line (a commercially available colorectal tumor cell line), cells were plated at 2,000 cells per well in DMEM+1% FBS, followed 24-hours later by the addition of serum free DMEM containing recombinant human Notum in the presence or absence of monoclonal antibodies SC2.D2.2 or SC2.10B3. HCT-116 cells were then incubated for 12 days at 37° C., 5% CO2 and cell viability was assessed with Promega's CellTiterGlo assay kit. Higher readings are indicative of higher viable cell counts.

[2] = test system: Wnt3A-mediated induction of luciferase in the 293.TCF cells; test: Wnt3A canonical signaling assay, bioactivity of Notum constructs; format: cell-based, human; conditions: without added Notum
Method in brief: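 293.TCF cells (HEK 293T stably carrying a TCF-driven GFP/luciferase reporter), 2.5×10^4 per well, serum-starved 23 h, then given Notum proteins 1 h before Wnt3A or control L-cell conditioned medium.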

B1: SC2.D2.2 (antibody, V domains shown)
VH: DVQLVESGGGLVQPGGSRKISCAASGFTFSSYGMHWVRQAPEKGLEWVAYISSSTVTTYYADTVKGRFTISRDNANNTLFLQMTSLRSEDTAMYYCSRQNWDGGYFDVWGAGTTVTVSS
VL: DIVLTQSLASLAVSLGQRATISCRASKSVSSSGYSYMHWYQQKPGQPPKLLIYLASNLESGVPARFSGSGSGTDFTLNIHPVEEEDAATYYCQHSRALPLTFGAGTKLELKR
notes: also called murine SC2.D2.2
neutralization of chimeric Notum activity [1]: can be neutralized | inhibition of macaque Notum activity (macaque Notum-Fc): did not inhibit; also recorded: without inhibiting murine or macaque versions of the protein | effect on hNotum induced increase in cell numbers (HCT-116 cells): blocked | effect of antibody alone on induction of luciferase due to Wnt3A CM [2]: does not inhibit the induction of luciferase due to Wnt3A CM
